Among the data in patent US20030207330A1 (DYAX, published 2003) are Kd values, retold here.

fluorescein = fluorescein label, attached with NHS-fluorescein

As usually defined, the Kd is the concentration at which binding is half-saturated. A high value points to weaker binding.

This assay concerns the target T1, fibrinogen (species not stated); biotinylated fibrinogen on streptavidin plates in the phage ELISA, free … (Homo sapiens (Human), UniProt P02671 20-644); P02675 31-491; P02679 27-437, Biotinylated at unstated positions in the phage ELISA and unlabelled in the anisotropy assay. The native molecule is a disulfide-linked dimer of the three chains, (A-alpha B-beta gamma)2, and is …).
T1 construct: also called Fgn; fibrinogen target
T1 sequence (alpha): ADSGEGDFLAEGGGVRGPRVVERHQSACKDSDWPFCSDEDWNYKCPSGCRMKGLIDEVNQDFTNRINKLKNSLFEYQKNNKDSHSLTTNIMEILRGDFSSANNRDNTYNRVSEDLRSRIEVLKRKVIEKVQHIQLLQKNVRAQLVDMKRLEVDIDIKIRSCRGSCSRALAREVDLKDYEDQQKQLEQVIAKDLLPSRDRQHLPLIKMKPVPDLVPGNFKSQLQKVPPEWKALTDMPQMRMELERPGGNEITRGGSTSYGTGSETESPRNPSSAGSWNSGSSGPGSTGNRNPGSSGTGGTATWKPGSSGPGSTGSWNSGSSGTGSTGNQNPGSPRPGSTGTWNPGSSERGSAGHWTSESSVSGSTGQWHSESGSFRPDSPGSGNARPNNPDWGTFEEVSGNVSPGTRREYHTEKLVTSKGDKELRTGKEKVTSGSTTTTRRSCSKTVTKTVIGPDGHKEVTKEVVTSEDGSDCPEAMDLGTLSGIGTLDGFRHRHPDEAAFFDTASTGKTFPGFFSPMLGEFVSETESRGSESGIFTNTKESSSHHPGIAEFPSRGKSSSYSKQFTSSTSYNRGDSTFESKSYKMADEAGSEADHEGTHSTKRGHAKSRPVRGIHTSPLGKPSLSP
T1 sequence (beta): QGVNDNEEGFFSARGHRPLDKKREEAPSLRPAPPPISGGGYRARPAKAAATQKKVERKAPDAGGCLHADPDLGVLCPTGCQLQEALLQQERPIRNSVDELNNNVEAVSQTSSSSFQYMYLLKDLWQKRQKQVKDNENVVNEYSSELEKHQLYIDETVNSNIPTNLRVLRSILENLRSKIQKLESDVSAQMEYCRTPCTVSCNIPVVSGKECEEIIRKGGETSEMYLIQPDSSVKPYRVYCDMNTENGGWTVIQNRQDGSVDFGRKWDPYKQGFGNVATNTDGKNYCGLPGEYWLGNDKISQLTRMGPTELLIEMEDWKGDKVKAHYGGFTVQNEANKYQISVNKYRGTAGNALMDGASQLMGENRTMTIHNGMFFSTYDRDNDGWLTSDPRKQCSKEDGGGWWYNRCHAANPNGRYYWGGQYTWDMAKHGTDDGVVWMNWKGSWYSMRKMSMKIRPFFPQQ
T1 sequence (gamma): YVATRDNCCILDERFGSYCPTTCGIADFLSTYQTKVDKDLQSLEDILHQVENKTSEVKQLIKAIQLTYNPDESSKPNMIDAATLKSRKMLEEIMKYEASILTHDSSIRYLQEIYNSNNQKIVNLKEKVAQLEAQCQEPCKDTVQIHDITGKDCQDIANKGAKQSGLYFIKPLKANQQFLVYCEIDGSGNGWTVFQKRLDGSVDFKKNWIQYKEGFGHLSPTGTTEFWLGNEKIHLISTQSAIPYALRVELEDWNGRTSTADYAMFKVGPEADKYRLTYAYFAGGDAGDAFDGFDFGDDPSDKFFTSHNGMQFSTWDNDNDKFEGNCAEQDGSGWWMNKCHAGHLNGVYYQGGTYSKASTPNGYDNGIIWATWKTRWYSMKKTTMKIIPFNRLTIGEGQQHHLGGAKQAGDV
Put plainly: fluorescence anisotropy, 20 nM fluorescein-labeled peptide, fibrinogen varied, 30° C., 1:1 fit. The method, then: An apparent dissociation constant was determined for a selected polypeptide. For this determination, the polypeptide was labeled on the C-terminal end with NHS-fluorescein. Fluorescence anisotropy measurements were performed in 384-well microplates in a volume of 10 μl in binding buffer using a Tecan Polarion fluorescence polarization plate reader. The concentration of fluorescein labeled peptide was held constant (20 nM), and the concentration of fibrinogen was varied. The polypeptide was tested in the same binding buffer as used in the selection. The binding mixture was equilibrated for 10 minutes in the microplate at 30° C. prior to performing the measurement. The observed change in anisotropy was fit to the equation below via nonlinear regression to obtain the apparent KD. This equation assumes that the polypeptide and fibrinogen form a reversible complex with 1:1 stoichiometry.
Background: Fluorescence polarisation rises when a labelled molecule tumbles more slowly, as on binding a larger partner.

B1: fluorescein-labeled synthetic polypeptide based on the TN10/IX polypeptide of SEQ ID NO: 43 (peptide)
peptide: Ac-LYLCNSYPMHPYCNPSGGGK(fluorescein)-NH2
modifications: cysteine pairing not given here; also: retained phage-derived N- and C-terminal dipeptides, which ones not given here
notes: Commercial FMOC solid phase synthesis; also called selected polypeptide; not shown: retained phage-derived N-terminal dipeptide (Gly-Ser-, Ala-Gly- or Gly-Asp-); retained phage-derived C-terminal dipeptide (-Ala-Pro, -Gly-Thr or -Asp-Pro)
For the molecule B1, binding was characterised by a dissociation constant (Kd) of 2000 nM.
